Measured values from US20190233824A1, “PD-1 SPECIFIC APTAMERS” (THE METHODIST HOSPITAL SYSTEM, published 2019).

Molecular target: PD-1 (PDCD1, recombinant full length) (Homo sapiens, UniProt Q15116 Q15116:25-288)
Assay: BLI; per-concentration fits 9.90, 4.17, 1.34 nM; phosphate pH 7.4, 137 mM NaCl, 2.7 mM KCl, 0.1% BSA, 0.01% Tween-20, 25 C
Settings: tags: ACROBiosystems, produced in HEK293; label: 5' biotin (BLI) or FAM (flow); predicted hairpin-bulge / possible G-quadruplex
Description: Specific PD-1 5′ biotinylated DNA aptamer (Midland Oligos) were prepared in the concentration range of (10 nM and 100 nM). […] Octet Red analysis software (ForteBio) was used to analyze the sensorgram data.

Chain of PD-1 (PDCD1, recombinant full length) (Q15116 25-288, one chain of several): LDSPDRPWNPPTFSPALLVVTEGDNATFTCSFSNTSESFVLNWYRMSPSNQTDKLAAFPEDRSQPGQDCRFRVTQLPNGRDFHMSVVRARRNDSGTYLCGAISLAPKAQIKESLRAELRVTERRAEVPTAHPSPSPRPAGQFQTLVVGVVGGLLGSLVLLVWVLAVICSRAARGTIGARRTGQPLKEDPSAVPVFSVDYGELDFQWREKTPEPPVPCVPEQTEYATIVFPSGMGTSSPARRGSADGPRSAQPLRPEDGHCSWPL

B1: fpf2 (10-150-373) (ssDNA)
DNA: CCGTATACATACCTGATAGCGTATGCGAGGAAGTGGGCTTGGTGTGGTGGGCTTCTCTCAGTAGGTGCATAAGCGCATGCATGC
- binding result: binds
